Data set [1] addresses T1, TREM2 stalk region derived synthetic peptide, Peptide 6 (H-SI cleavage site replaced with IDP).
T1 chain: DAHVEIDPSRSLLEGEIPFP

For data set [2], the target named is T2, TREM2 stalk region derived synthetic peptide, Peptide 4 (H-SI cleavage site replaced with IPP).
T2 chain: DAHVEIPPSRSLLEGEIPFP

The target in data set [3] is T3, TREM2 stalk region derived synthetic peptide, Peptide 3.
T3 chain: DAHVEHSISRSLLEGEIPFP

The target in data set [4] is T4, TREM2 stalk region derived synthetic peptide, Peptide 5 (H-SI cleavage site replaced with IPD).
T4 chain: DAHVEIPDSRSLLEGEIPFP

Another data set deals with BWZ-lacZ-mDAP12 cells. The experiment in a line: Reporter gene assay in BWZ cells. The settings on record: stably expressed with mDAP12, activating anti-TREM2 mAb vs isotype control, 16 h, compared with BWZ-TREM2-WT cells. The format is cell-based. The method, then: BWZ thymoma reporter cells, which express lacZ under control of the promoter for nuclear factor of activated T cells (NFAT, Hsieh et al, Journal of Neurochemistry 109, 1144-1156, 2009) were transfected to co-express mDAP12 and WT hTREM2 or T2double TREM2. Cells were seeded in RPMI without phenol red supplemented with 2% FBS and 1% non-essential amino acids on high binding microtiter plates (Greiner) pre-coated with rat anti-mouse/human TREM2 mAb (R&D, MAB17291) or isotype control. Cell culture was continued for 16 h. Reporter gene activity was assessed with the Beta-glo assay system (Promega) according to the manufacturer's recommendations using an Envision 2104 multilabel reader (Perkin Elmer).
Next it was tested whether the T2-double-TREM2 construct retained functionality. To this end this mutant was stably transfected into BWZ cells that already expressed mouse DAP12 and a beta-Gal reporter driven by NFAT (Hsieh, Journal of Neurochemistry 109, 1144-1156, 2009). mDAP12 expressed without TREM2 in this cell lines represents background reporter gene activity (RGA) in this system. […] Thus, the T2-double-TREM2 construct retained TREM2 functions.
In general terms: A reporter such as luciferase makes a cellular process visible.

B1: recombinant ADAM10 (protein)
chain: TTSAEKNTCQLYIQTDHLFFKYYGTREAVIAQISSHVKAIDTIYQTTDFSGIRNISFMVKRIRINTTADEKDPTNPFRFPNIGVEKFLELNSEQNHDDYCLAYVFTDRDFDDGVLGLAWVGAPSGSSGGICEKSKLYSDGKKKSLNTGIITVQNYGSHVPPKVSHITFAHEVGHNFGSPHDSGTECTPGESKNLGQKENGNYIMYARATSGDKLNNNKFSLCSIRNISQVLEKKRNNCFVESGQPICGNGMVEQGEECDCGYSDQCKDECCFDANQPEGRKCKLKPGKQCSPSQGPCCTAQCAFKSKSEKCRDDSDCAREGICNGFTALCPASDPKPNFTDCNRHTQVCINGQCAGSICEKYGLEECTCASSDGKDDKELCHVCCMKKMDPSTCASTGSVQWSRHFSGRTITLQPGSPCNDFRGYCDVFMRCRLVDADGPLARLKKAIFSPELYENIAE
Consider B1, for which the “in vitro cleavage of peptide by ADAM10” value is “Peptides 5 and 6 were slowly cleaved by ADAM10 (data not shown)” in data set [1]; “Peptide 4, with its IPP replacement for the H-SI cleavage site, appeared to be cleavage resistant in vitro” in data set [2]; “Peptides 5 and 6 were slowly cleaved by ADAM10 (data not shown)” in data set [4]. For the same molecule, in data set [3], the “in vitro cleavage of peptide by ADAM10, HPLC” value was “The same analysis was carried out with ADAM10, and a very similar cleavage pattern was obtained (data not shown)”.

B2: T2-double: human TREM2 mutant combining T2-YGG and T2-WFR mutations; SEQ ID NO: 48 (protein)
chain: MEPLRLLILLFVTELSGAHNTTVFQGVAGQSLQVSCPYDSMKHWGRRKAWCRQLGEKGPCQRVVSTHNLWLLSFLRRWNGSTAITDDTLGGTLTITLRNLQPHDAGLYQCQSLHGSEADTLRKVLVEVLADPLDHRDAGDLWFPGESESFEDAHVYGGWGGWGPEGEIWFRWTSILLLLACIFLIKILAASALWAAAWHGQKPGTHPPSELDCGHDPGYQLQTLPGLRDT
For the molecule B2, the “Reporter gene activity (RGA) after TREM2 activation” value in the data set with BWZ-lacZ-mDAP12 cells is given as “comparable activity”.

For the origin of these results see patent publication US20200207830A1, “TREM2 MUTANTS RESISTANT TO SHEDDASE CLEAVAGE” (NOVARTIS AG, priority 2017, published 2020).
